Results taken from PMC7395439, “Identification of the initial nucleocapsid recognition element in the HIV-1 RNA packaging signal”.

What was measured:
[1] = target: HIV-1 nucleocapsid protein (NC) (HIV-1 NL4-3) (UniProt P12493); experiment: ITC; settings: ITC: 10 mM Tris-HCl pH 7.0, 140 mM KCl, 10 mM NaCl, 5 mM MgCl2, 5 mM TCEP, 30 °C; NC (120-240 µM) titrated into RNA (0.6-4 µM)
[2] = target: T1, HIV-1 nucleocapsid protein (NC) (HIV-1 NL4-3, UniProt P12493); experiment: ITC; exothermic only, n=1.2±0.3; ITC: 10 mM Tris-HCl pH 7.0, 140 mM KCl, 10 mM NaCl, 5 mM MgCl2, 5 mM TCEP, 30 °C; NC (120-240 µM) titrated into RNA (0.6-4 µM); settings: protein: recombinant; tags: none stated; hairpin, blunt
[3] = target: T1, HIV-1 nucleocapsid protein (NC); experiment: ITC; exothermic only, n=1.2±0.1; ITC: 10 mM Tris-HCl pH 7.0, 140 mM KCl, 10 mM NaCl, 5 mM MgCl2, 5 mM TCEP, 30 °C; NC (120-240 µM) titrated into RNA (0.6-4 µM); settings: protein: recombinant; tags: none stated; hairpin, blunt
[4] = target: T1, HIV-1 nucleocapsid protein (NC); experiment: ITC; exothermic sites, n=2.8±0.3; ITC: 10 mM Tris-HCl pH 7.0, 140 mM KCl, 10 mM NaCl, 5 mM MgCl2, 5 mM TCEP, 30 °C; NC (120-240 µM) titrated into RNA (0.6-4 µM); settings: protein: recombinant; tags: none stated; hairpin, unpaired 5'-GA and AG-3' ends
[5] = target: T1, HIV-1 nucleocapsid protein (NC); experiment: ITC; endothermic sites, n=2.3±0.2; ITC: 10 mM Tris-HCl pH 7.0, 140 mM KCl, 10 mM NaCl, 5 mM MgCl2, 5 mM TCEP, 30 °C; NC (120-240 µM) titrated into RNA (0.6-4 µM); settings: protein: recombinant; tags: none stated; hairpin, unpaired 5'-GA and AG-3' ends
[6] = target: T1, HIV-1 nucleocapsid protein (NC); experiment: ITC; exothermic only, n=1.8±0.1; ITC: 10 mM Tris-HCl pH 7.0, 140 mM KCl, 10 mM NaCl, 5 mM MgCl2, 5 mM TCEP, 30 °C; NC (120-240 µM) titrated into RNA (0.6-4 µM); settings: protein: recombinant; tags: none stated; hairpin with single-stranded 3' GGAG region
[7] = target: T1, HIV-1 nucleocapsid protein (NC); experiment: ITC; exothermic sites, n=6.6±0.2 per dimer; ITC: 10 mM Tris-HCl pH 7.0, 140 mM KCl, 10 mM NaCl, 5 mM MgCl2, 5 mM TCEP, 30 °C; NC (120-240 µM) titrated into RNA (0.6-4 µM); settings: protein: recombinant; tags: none stated; duplex dimer of 2 strands

5'-LΔPBS was tested, and the Kd [1] was 760 nM.

In the case of 5'-L (5'-L344), the Kd [1] is reported as 880 nM.

In the case of TAR-PolyA, the Kd [1] is reported as 1320 nM.

B1: ΨHP-stable (structured_RNA)
RNA: GGUUUUGACUAGCGGAGGCUAGAAGGAGCC
B1 was tested, and the Kd [2] was 300 ± 150 nM.

B2: Ψ-apical loop (structured_RNA)
RNA: GGACUAGCGGAGGCUAGUCC
In the case of B2, the Kd [3] is reported as 320 ± 30 nM.

B3: ΨHP (structured_RNA)
RNA: GAUUUUGACUAGCGGAGGCUAGAAGGAGAG
B3 was tested, and the Kd [4] was 1540 ± 240 nM and the Kd [5] was 26 ± 21 nM.

B4: Ψ-fragment (structured_RNA)
RNA: GACUAGCGGAGGCUAGAAGGAG
For B4, the Kd [6] was 450 ± 30 nM.

B5: DIS (structured_RNA)
RNA: GGCAGGACUCGGCUUGCUGAAGCGCGCACGGCAAGAGGCGAGGGGCC
Molecule B5 has a Kd [7] of 340 ± 30 nM.
